Test results: the Human Domainome abundance scans (Beltran et al. 2025)
± gives the uncertainty stated by the source.

B1: COUP transcription factor 1, residues 83 to 159; numbered along this chain, P10589 (parent)
chain: HIECVVCGDKSSGKHYGQFTCEGCKSFFKRSVRRNLTYTCRANRNCPIDQHHRNQCQYCRLKKCLKVGMRREAVQRG

Variants of: B1
Experiment: abundance fitness (aPCA) (normalised: wild type 0, dead -1); higher = more abundant; growth selection in yeast, the domain comes from the species named
Conditions: Homo sapiens

Question: With HIECVVCGDKSSTKHYGQFTCEGCKSFFKRSVRRNLTYTCRANRNCPIDQHHRNQCQYCRLKKCLKVGMRREAVQRG as the variant, how does the abundance fitness read?
Answer: -0.115 ± 0.055

Question: Which abundance fitness does the source give for HIECVVCGDKSSGKHYGQFTCEGCKSFFKRSVRRNLTYTCRANRNCPIDQHHRNQCQYARLKKCLKVGMRREAVQRG here?
Answer: -0.668 ± 0.062

Question: For HIECVVCGDKSSGKHYGQFTCEGCKSFFKRSVRRNLTITCRANRNCPIDQHHRNQCQYCRLKKCLKVGMRREAVQRG, which abundance fitness is on record?
Answer: -0.24 ± 0.29

Question: For HKECVVCGDKSSGKHYGQFTCEGCKSFFKRSVRRNLTYTCRANRNCPIDQHHRNQCQYCRLKKCLKVGMRREAVQRG, which abundance fitness is on record?
Answer: -0.329 ± 0.22

Question: With HIECVVCGDKSSGKHYGQFTCEGCKSFFKRSVRRNLTYTCRANRNCHIDQHHRNQCQYCRLKKCLKVGMRREAVQRG as the variant, how does the abundance fitness read?
Answer: -0.296 ± 0.12

Question: Which abundance fitness does the source give for HIECVVCGDKSSGKHYGQFTCEGCKSFFERSVRRNLTYTCRANRNCPIDQHHRNQCQYCRLKKCLKVGMRREAVQRG here?
Answer: 0.103 ± 0.05

Question: For HIECVVCGDKSSGKHYGQFTCEGCKSFFHRSVRRNLTYTCRANRNCPIDQHHRNQCQYCRLKKCLKVGMRREAVQRG, which abundance fitness is on record?
Answer: -0.048 ± 0.12

Question: For HIECVVCGDKSSGKHYGQFTCEGCKSFFKRSVRRNLTYTCRANRNCPIDQHHRNQCQYCRYKKCLKVGMRREAVQRG, which abundance fitness is on record?
Answer: -0.152 ± 0.068

Question: With HIECVVCGDKSSGKHYEQFTCEGCKSFFKRSVRRNLTYTCRANRNCPIDQHHRNQCQYCRLKKCLKVGMRREAVQRG as the variant, how does the abundance fitness read?
Answer: -0.156 ± 0.075

Question: With HIECVVCGDKSSGKHYRQFTCEGCKSFFKRSVRRNLTYTCRANRNCPIDQHHRNQCQYCRLKKCLKVGMRREAVQRG as the variant, how does the abundance fitness read?
Answer: -0.421 ± 0.07

Question: For HIECVVCGDKSSGKHYGQFTCEGCKSFFKRSVRRNLTYTCRANRNCPIDQHHRNQCQYCRLKKCGKVGMRREAVQRG, which abundance fitness is on record?
Answer: -0.392 ± 0.039

Question: Which abundance fitness does the source give for HIECVVCGDKSSGKHYGQFTCEGCKSFFKRSVRRNLTYTCRANRNCPIDQHHRNQCQACRLKKCLKVGMRREAVQRG here?
Answer: 0.017 ± 0.037

Question: With HIECVVCGDKSSGKHYGQFTCEGCKSFFKRSVRRNLTYACRANRNCPIDQHHRNQCQYCRLKKCLKVGMRREAVQRG as the variant, how does the abundance fitness read?
Answer: 0.17 ± 0.064

Question: Which abundance fitness does the source give for HIECVVCGDKSSGKHYGQFTCEGCKSFFKRSVRRNLTYTCRANRNCPIDQHHRNQCQYCRLKKCLKFGMRREAVQRG here?
Answer: -0.115 ± 0.067

Question: Which abundance fitness does the source give for HIECVVCGDKSSGKHYGQFTCEGCKSFFKRSVRRNLTYTCRANRNCPIDQHHRNQCQYCRLKKCLKVGHRREAVQRG here?
Answer: -1.08 ± 0.26

Question: With HIECVVCGDKSSGKHYGQFTCEGCKSFFKRSVRRNLYYTCRANRNCPIDQHHRNQCQYCRLKKCLKVGMRREAVQRG as the variant, how does the abundance fitness read?
Answer: -0.254 ± 0.1

Question: With HIECVVCGDKSSGKHPGQFTCEGCKSFFKRSVRRNLTYTCRANRNCPIDQHHRNQCQYCRLKKCLKVGMRREAVQRG as the variant, how does the abundance fitness read?
Answer: -0.355 ± 0.14

Question: Which abundance fitness does the source give for HIECVVCGDKSSGKHVGQFTCEGCKSFFKRSVRRNLTYTCRANRNCPIDQHHRNQCQYCRLKKCLKVGMRREAVQRG here?
Answer: -0.151 ± 0.062

Question: With HIECVVCGDKSSGKHGGQFTCEGCKSFFKRSVRRNLTYTCRANRNCPIDQHHRNQCQYCRLKKCLKVGMRREAVQRG as the variant, how does the abundance fitness read?
Answer: -0.157 ± 0.061

Question: For HIECVVCGDKSSGKHDGQFTCEGCKSFFKRSVRRNLTYTCRANRNCPIDQHHRNQCQYCRLKKCLKVGMRREAVQRG, which abundance fitness is on record?
Answer: 0.111 ± 0.09

Question: Which abundance fitness does the source give for HIECVVCGDKSSGKHYGQFTCEGCKSFFKRSVRRNLTYTCRANRNCPIDQHHRNQCQYCRLKKCLKVGMRREAVQEG here?
Answer: 0.11 ± 0.047

Question: For HIECVVCGDKSSGKHYGQFTCEGCKSFFKRSVRRNLTYTCRANRNCPIDQHHRNQCQYCRLKKCLKVGMRREAVQHG, which abundance fitness is on record?
Answer: 0.094 ± 0.083

Question: With HIECVVCGDKSSGKHYGQFTCEGCKSFFKRSVRRNLTYTCRANRNCPIDQHHRNQCQYCRLKKCLKVGMRREAVQGG as the variant, how does the abundance fitness read?
Answer: 0.161 ± 0.034

Question: For HIECVVCGDKSSGKHYGQFTCEGCKSFFKRSVRRNLTYTCRANRNCPIDQHHRNQCQYCRLQKCLKVGMRREAVQRG, which abundance fitness is on record?
Answer: -0.001 ± 0.061

Question: For HIECVVCGDKSSGKHYGQFTCEGCKSFFKRSVRRNLTYTCRANRNCPIDQHHRNQCQYCRLLKCLKVGMRREAVQRG, which abundance fitness is on record?
Answer: -0.015 ± 0.038

Question: With HIECVVCGDKSSGKHYGQFTCEGCKSFFKRSVRRNLTYTCRANRNCPIDQHHRNQCQYCRLGKCLKVGMRREAVQRG as the variant, how does the abundance fitness read?
Answer: -0.143 ± 0.035

Question: Which abundance fitness does the source give for HIECVVCGDKSSGKHYGQFTCEGCKSFFKRSVRRNLTYTCRANRNCPIDQHHRNQCQYCRLKKCLKVGMRREHVQRG here?
Answer: 0.038 ± 0.064

Question: With HIECVVCGDKSSGKHYGQFTCEGCKSFFKRSVRRNLTYTCRANRNCPIDQHHRNQCQYCRLKKCLKVGMRREYVQRG as the variant, how does the abundance fitness read?
Answer: -0.061 ± 0.068

Question: For HIECVICGDKSSGKHYGQFTCEGCKSFFKRSVRRNLTYTCRANRNCPIDQHHRNQCQYCRLKKCLKVGMRREAVQRG, which abundance fitness is on record?
Answer: -0.074 ± 0.11

Question: Which abundance fitness does the source give for HIECVMCGDKSSGKHYGQFTCEGCKSFFKRSVRRNLTYTCRANRNCPIDQHHRNQCQYCRLKKCLKVGMRREAVQRG here?
Answer: -1.06 ± 0.36

Question: Which abundance fitness does the source give for HIECVVCGDKSSGKHYGQFTCEACKSFFKRSVRRNLTYTCRANRNCPIDQHHRNQCQYCRLKKCLKVGMRREAVQRG here?
Answer: -0.153 ± 0.14

Question: With HIECVVTGDKSSGKHYGQFTCEGCKSFFKRSVRRNLTYTCRANRNCPIDQHHRNQCQYCRLKKCLKVGMRREAVQRG as the variant, how does the abundance fitness read?
Answer: -0.95 ± 0.25

Question: Which abundance fitness does the source give for HIECVVCGDKSSGKHYGQFTCEGCKSFFKRSVRRNLTYTCRANRNCPIDQHHRNQCQYCRLKQCLKVGMRREAVQRG here?
Answer: -0.139 ± 0.047

Question: With HIECVVCGDKSSGKHYGQFTCEGCKSFFKRSVRRNLTYTCRANRNCPIDQHHRNQCQYCRLKVCLKVGMRREAVQRG as the variant, how does the abundance fitness read?
Answer: -0.249 ± 0.045

Question: Which abundance fitness does the source give for HIECVVCGDKSSGKHYGQFTCEGCKSFFKRSVRRNLTYTCRANRNCPIDQHHRNQCQYCRLKMCLKVGMRREAVQRG here?
Answer: -0.048 ± 0.047
